First the molecules themselves.
B5: 6xHis-TEV-Mto1[bonsai] (Mto1 residues 131-549) (domain or fragment, S. pombe, UniProt O94488 131-549, looked up)
chain: TTDDEQLSPVLTANQGFQSQEQYEEDSYNNYDYTSDPSSPNYISSSLDQLPHLDDEDDLQLTPIKEERNYLHSQDAPTTNALSKKISDILIPASAMKDLKDRKNALAKEFEESQPGSSLTLKEQANVIDNLRKEVFGLKLKCYFLYDQLNKFHDQEVQDIMKQNIDLKTLTMELQRAVAGYEKKISGLESRIKPDQSFNLSTPSPAPSNLITLQSRYSQALSELETTKRAFAALRKEKSKKTNYSVGAYNEDRNVLSNMLDNERREKEALLQELESLRVQLSKKVPMPAKNTDERVIETLQRSNELLRMDISMQNEALLLRKQENDRLVKQVEELTVALNSGKMNAIVEAESSKNELWDSMMVSRMKTQEQSIELTRLYKQLQDIEEDYENKLMRMEQQWREDVDQLQEYVEEITQELQ
notes: Mto1, S. pombe CM1 protein, residues 131-549 of full-length Mto1 (1115 residues); a TEV site lies between the 6xHis tag and Mto1; Dimeric by SEC-MALS; No TEV cleavage is described; also called 6xHis-tagged Mto1[bonsai]; source: Sf9 (MultiBac baculovirus), purified (nickel chelate, Superose 6 SEC); expressed alone or co-expressed with untagged Mto2; not shown: His6, N-terminal, kept

Data set [1] deals with the molecule itself. Nature of the data set: SEC-MALS; Superdex 75 10/300 for protein fragments; NND injected at ∼5 mg/mL (600 µM) and a dilution series, TCD at ∼10 mg/mL (1000 µM) and a dilution series.
Data set [2] deals with the molecule itself. In words: SEC; SEC-dilution analysis, Superose 6 10/300, 4°C, 100 µL loaded; undiluted ∼9 mg/mL (co-purified Mto1/2[bonsai]), ∼1.5 mg/mL (Mto1[bonsai]), ∼2.5 mg/mL (Mto2), and 10X dilution; fractions by SDS-PAGE and western blot.
Data set [3] deals with the molecule itself. In words: SEC-MALS; Superose 6 10/300 for full-length proteins and complexes; injected at ∼4.5 mg/mL (Mto1/2[bonsai]), ∼1.3 mg/mL (Mto1[bonsai]), ∼1.6 mg/mL (Mto2), 1.4 mg/mL (Mto2-134A136A), 1.3 mg/mL (Mto2-134AAA).
Data set [4] concerns the molecule itself. Nature of the data set: cross-linking; EDC/Sulfo-NHS zero-length cross-linking with mass spectrometry (CLMS) of co-purified Mto1/2[bonsai] complex; phosphate pH 7.5, 300 mM NaCl, 5% glycerol, 2 h at 18°C.
The target of data set [5] is B5. Nature of the data set: SEC; SEC-dilution analysis, Superose 6 10/300, 4°C, 100 µL loaded; undiluted ∼9 mg/mL (co-purified Mto1/2[bonsai]), ∼1.5 mg/mL (Mto1[bonsai]), ∼2.5 mg/mL (Mto2), and 10X dilution; fractions by SDS-PAGE and western blot. The note with it: both partners purified.
Data set [6] deals with the molecule itself. In words: ITC; dilution series, 25°C, iTC200; 100 µM NND injected (20 x 2 µL) into 50 mM Tris-HCl pH 8.0, 150 mM NaCl, 2 mM EDTA; dimer dissociation model; dimer to monomers.
Data set [7] deals with the molecule itself. In words: cross-linking; intermolecular disulfide between engineered cysteines; SDS-PAGE with and without β-mercaptoethanol.

B1: Mto2 Twin-Cysteine Domain (TCD; Mto2 residues 180-265) (domain or fragment, S. pombe, UniProt Q9USP7 180-265, looked up)
chain: PAPLSTMQTALMRLRTYHPSPIILKPVEQAVNHAITLVNTSPSSVVDALCRSLAELCLGLVQEAIDASILSQQESSNSLDLVRHTP
notes: Mto2, S. pombe, residues 180-265 (TCD); Residues 180-250 (chain A) and 180-248 (chain B) are built in the structure; source: E. coli BL21(DE3) pRIL, purified (glutathione-sepharose, TEV cleavage, SEC); selenomethionine-labelled protein from B834(DE3); not shown: GST, N-terminal, cleaved
As for B1, the “stoichiometry N” value in data set [1] was found to be 2.

B2: 6xHis-tagged Mto2 (natural protein, S. pombe, UniProt Q9USP7 1-397, looked up)
chain: MSEHNYQSDREVAEDPFLNYEASANQLSSNSRESTPRGSPWRAGMRSASLMTEPLEDSMYSDNNYLDNGVSFTKDENPLYSPSWPSLADANVNSMKSNNAIQEHKAAKFVSEKSLEKVSTADNNLVLQELENLRERLNQVELQLSERPSSYLGYHNNLSPYRSPNSYPSLLPSTHSPHSPAPLSTMQTALMRLRTYHPSPIILKPVEQAVNHAITLVNTSPSSVVDALCRSLAELCLGLVQEAIDASILSQQESSNSLDLVRHTPPLNYTSSVDSSPQRMASDSYGRPSLHLNDPFPSVDLQSNELSHHNVRTTLFSDDSRFHSKIHTHSTPPSQMYSAASHFRYRSDPSTRHVSNSTNKSSLHPSPTSLRVAHPIIPQRASPASQSFPSLQDTPSP
notes: Forms a range of multimers; Construct described in Leong et al., 2019; also called wild-type Mto2; 6xHis-Mto2; source: Sf9 (MultiBac baculovirus), purified (nickel chelate, Superose 6 SEC); also Sf9 co-infected with GST-Mto1[bonsai] virus, in lysate
With B2, the binding result in data set [2] is recorded as “binds”.

B3: Mto1/2[bonsai] complex (complex, S. pombe)
chain 1: TTDDEQLSPVLTANQGFQSQEQYEEDSYNNYDYTSDPSSPNYISSSLDQLPHLDDEDDLQLTPIKEERNYLHSQDAPTTNALSKKISDILIPASAMKDLKDRKNALAKEFEESQPGSSLTLKEQANVIDNLRKEVFGLKLKCYFLYDQLNKFHDQEVQDIMKQNIDLKTLTMELQRAVAGYEKKISGLESRIKPDQSFNLSTPSPAPSNLITLQSRYSQALSELETTKRAFAALRKEKSKKTNYSVGAYNEDRNVLSNMLDNERREKEALLQELESLRVQLSKKVPMPAKNTDERVIETLQRSNELLRMDISMQNEALLLRKQENDRLVKQVEELTVALNSGKMNAIVEAESSKNELWDSMMVSRMKTQEQSIELTRLYKQLQDIEEDYENKLMRMEQQWREDVDQLQEYVEEITQELQ
chain 2: MSEHNYQSDREVAEDPFLNYEASANQLSSNSRESTPRGSPWRAGMRSASLMTEPLEDSMYSDNNYLDNGVSFTKDENPLYSPSWPSLADANVNSMKSNNAIQEHKAAKFVSEKSLEKVSTADNNLVLQELENLRERLNQVELQLSERPSSYLGYHNNLSPYRSPNSYPSLLPSTHSPHSPAPLSTMQTALMRLRTYHPSPIILKPVEQAVNHAITLVNTSPSSVVDALCRSLAELCLGLVQEAIDASILSQQESSNSLDLVRHTPPLNYTSSVDSSPQRMASDSYGRPSLHLNDPFPSVDLQSNELSHHNVRTTLFSDDSRFHSKIHTHSTPPSQMYSAASHFRYRSDPSTRHVSNSTNKSSLHPSPTSLRVAHPIIPQRASPASQSFPSLQDTPSP
notes: Mto1, S. pombe, residues 131-549 of full-length Mto1 (Mto1[bonsai]); Mto2, S. pombe, untagged in the co-expression; Near-equal stoichiometry of the two chains; a range of multimer sizes, so no copy numbers; also called 6xHis-tagged Mto1/2[bonsai]; recombinant Mto1/2[bonsai]; source: Sf9 (MultiBac baculovirus), co-expressed, purified (nickel chelate, Superose 6 SEC); not shown: His6, N-terminal, …
B3: in data set [3], the binding result is listed as “binds”.

B4: Mto2, untagged, co-expressed with 6xHis-Mto1[bonsai] (natural protein, S. pombe, UniProt Q9USP7 1-397, looked up)
chain: MSEHNYQSDREVAEDPFLNYEASANQLSSNSRESTPRGSPWRAGMRSASLMTEPLEDSMYSDNNYLDNGVSFTKDENPLYSPSWPSLADANVNSMKSNNAIQEHKAAKFVSEKSLEKVSTADNNLVLQELENLRERLNQVELQLSERPSSYLGYHNNLSPYRSPNSYPSLLPSTHSPHSPAPLSTMQTALMRLRTYHPSPIILKPVEQAVNHAITLVNTSPSSVVDALCRSLAELCLGLVQEAIDASILSQQESSNSLDLVRHTPPLNYTSSVDSSPQRMASDSYGRPSLHLNDPFPSVDLQSNELSHHNVRTTLFSDDSRFHSKIHTHSTPPSQMYSAASHFRYRSDPSTRHVSNSTNKSSLHPSPTSLRVAHPIIPQRASPASQSFPSLQDTPSP
notes: Mto2, S. pombe; for coexpression the tag was present only on Mto1[bonsai]; Construct described in Leong et al., 2019; also called Mto2 (of the Mto1/2[bonsai] complex); source: Sf9 (MultiBac baculovirus), co-expressed and co-purified with 6xHis-Mto1[bonsai]
Turning to B4, the binding result in data set [4] is recorded as “binds”. Besides, in data set [5], the “stoichiometry N” value is around 1.
In the case of B5, in data set [3], the “stoichiometry N” value worked out at 2.

B6: Mto2 Near-N-terminal Domain (NND; Mto2 residues 78-153) (domain or fragment, S. pombe, UniProt Q9USP7 78-153, looked up)
chain: PLYSPSWPSLADANVNSMKSNNAIQEHKAAKFVSEKSLEKVSTADNNLVLQELENLRERLNQVELQLSERPSSYLG
notes: Mto2, S. pombe, residues 78-153 (NND); Weak homodimer that dissociates upon dilution; also called wild-type NND; source: E. coli BL21(DE3) pRIL, purified (glutathione-sepharose, TEV cleavage, SEC); not shown: GST, N-terminal, cleaved
Turning to B6, in data set [1], the “stoichiometry N” value turned out to be 2. The molecule also showed a Kd in data set [6] of 15 µM.

B7: NND-R147C (domain or fragment, S. pombe, UniProt Q9USP7 78-153, looked up)
chain: PLYSPSWPSLADANVNSMKSNNAIQEHKAAKFVSEKSLEKVSTADNNLVLQELENLRERLNQVELQLSECPSSYLG
notes: Mto2, S. pombe, residues 78-153 (NND) with R147C; Disulfide-linked dimer under non-reducing conditions; source: E. coli BL21(DE3) pRIL, purified (glutathione-sepharose, TEV cleavage, SEC); not shown: GST, N-terminal, cleaved
For the molecule B7, in data set [7], the binding result was “binds”.

B8: NND-N123C (domain or fragment, S. pombe, UniProt Q9USP7 78-153, looked up)
chain: PLYSPSWPSLADANVNSMKSNNAIQEHKAAKFVSEKSLEKVSTADCNLVLQELENLRERLNQVELQLSERPSSYLG
notes: Mto2, S. pombe, residues 78-153 (NND) with N123C; Disulfide-linked dimer under non-reducing conditions; source: E. coli BL21(DE3) pRIL, purified (glutathione-sepharose, TEV cleavage, SEC); not shown: GST, N-terminal, cleaved
As to B8, the binding result in data set [7] is “binds”.

Source of the values: paper doi:10.1101/754457, “Architecture of the Mto1/2 microtubule nucleation complex” (bioRxiv, 2019).
